Results: US20100048868A1

Target: recombinant human HER2 extracellular domain (human) (UniProt P04626)
Test: SPR (Biacore 2000), HER2-ECD immobilised, 1:1 model, 25 C

Kd: 3 nM | koff: 0.00076 s⁻¹
Substance: His6-(ZHER2 A)2 (designed binder)
